Among the data in article PMC314469, “Protein Interaction Networks by Proteome Peptide Scanning” (PLoS Biology, 2004) are normalised SPOT signal, Boehringer light units (BLU); mean over the file's lines of this peptide values, retold here.

Sequences and labels used below:
B1: YBR031W 19-32 (peptide)
chain: ALPLPAVFSAPIRP
B2: YML059C 513-525 (peptide)
chain: ASSKLKKPPKAKP
B3: YMR016C 645-657 (peptide)
chain: ASTLGITPADSKP
B4: YMR072W 106-119 (peptide)
chain: AKKEFDEKLPPKKP
B5: YDL145C 797-809 (peptide)
chain: ASNFVQRPVISKP
B6: YCL048W 27-39 (peptide)
chain: AIDPPRRPHNVKP
B7: YLR335W 584-596 (peptide)
chain: ATKVDATPEESKP
B8: YGR170W 87-100 (peptide)
chain: ALPTGAPPTTPSRP
B9: YGR234W 289-302 (peptide)
chain: AMLEEQVKSNPNRP
B10: YDR331W 298-310 (peptide)
chain: ANVQNVIPDDSKP
B11: YDL129W 167-179 (peptide)
chain: ASSAELRPLLERP
B12: YPL012W 496-508 (peptide)
chain: APLNLDNPSSERP
B13: YBR203W 447-459 (peptide)
chain: AKSTRSSPQKAKP
B14: YGL133W 239-251 (peptide)
chain: ASSKMGAPWSVKP
B15: YGR276C 328-341 (peptide)
chain: AIIYHHKAGDPFKP
B16: YBR229C 581-593 (peptide)
chain: AIKSIYSPSDKRP
B17: YDR150W 1608-1620 (peptide)
chain: AIRKENLPNLEKP
B18: YDL078C 69-82 (peptide)
chain: AQVVLIPAGVPRKP
B19: YLR289W 219-231 (peptide)
chain: AIIDRIPPPTGRP
B20: YLR226W 381-393 (peptide)
chain: AKDPIRTPDAKKP
B21: YPL019C 671-683 (peptide)
chain: ASSFQLPPGVKKP
B22: YLR281C 14-27 (peptide)
chain: AVLLIKKNKLPPRP
B23: YLR430W 2217-2229 (peptide)
chain: ASSSPFIPKKRKP
B24: YJL041W 251-264 (peptide)
chain: ASQPEPTTNEPAKP
B25: YOR098C 642-655 (peptide)
chain: AQKDSSVVSEPKKP
B26: YOR153W 112-124 (peptide)
chain: AHLSAADPDFYKP
B27: YGL099W 6-18 (peptide)
chain: APKKWKAPKGPKP
B28: YEL070W 157-170 (peptide)
chain: APEIINDLNHPEKP
B29: YGL060W 533-546 (peptide)
chain: ANSVPIMPTLPPRP
B30: YEL056W 186-199 (peptide)
chain: ALWEVGSGGDPTKP
B31: YCL055W 274-286 (peptide)
chain: ARTGYETPVKVRP
B32: YHR205W 678-690 (peptide)
chain: ALKQKKIPPPFKP
B33: YJL128C 177-190 (peptide)
chain: AQLLNPNRRAPRRP
B34: YGL008C 735-747 (peptide)
chain: AIAYDNAPYSPKP
B35: YLR189C 1077-1089 (peptide)
chain: ASLRAGLPTVIKP
B36: YEL007W 23-36 (peptide)
chain: ATLDGKLKHIPRRP
B37: YJR124C 130-142 (peptide)
chain: AMIAHLSPHNARP
B38: YLL018C 545-557 (peptide)
chain: ASLFPRDPKRLRP
B39: YGL131C 433-446 (peptide)
chain: ALNDSMFFPYPFKP
B40: YIL031W 418-430 (peptide)
chain: ATTEFETPELFKP
B41: YKL108W 91-104 (peptide)
chain: AISIFDMNLSPIKP
B42: YKR089C 707-719 (peptide)
chain: ASTYGRSPSGFRP
B43: YPL085W 1841-1854 (peptide)
chain: ASKLVEQHMAPPKP
B44: YLR189C 14-27 (peptide)
chain: AGPKPSISLVPDKP
B45: YDR200C 169-182 (peptide)
chain: ATFETKFLVVPFKP
B46: YLR392C 95-107 (peptide)
chain: ALDGSSKPFKVKP
B47: YDR406W 122-134 (peptide)
chain: ANISTSDPDFYKP
B48: YAR033W 173-185 (peptide)
chain: ATSIGNSPVTAKP
B49: YOR251C 241-254 (peptide)
chain: ALKDFHSTLDPSKP
B50: YJL041W 183-196 (peptide)
chain: ATTNDDKKTEPDKP
B51: YMR300C 181-193 (peptide)
chain: ALFGFRDPNGIRP
B52: YMR115W 51-64 (peptide)
chain: APIPESPANSPTRP
B53: YOL138C 1118-1131 (peptide)
chain: APIIGSPRHAPSRP
B54: YOL126C 141-154 (peptide)
chain: ASIVVIPAGVPRKP

The target of the assay is T1, Abp1 SH3 (ABP1_YEAST), P15891.
T1 chain: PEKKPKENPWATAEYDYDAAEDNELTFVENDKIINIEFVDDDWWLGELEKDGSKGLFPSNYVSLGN
The experiment in a line: SPOT array.
For the molecule B1, the normalised SPOT signal, Boehringer light units (BLU); mean over the file's lines of this peptide turned out to be 49.7.
The molecule B2 yielded a normalised SPOT signal, Boehringer light units (BLU); mean over the file's lines of this peptide of 2150.
In turn, B3 had a normalised SPOT signal, Boehringer light units (BLU); mean over the file's lines of this peptide of 93.1.
Regarding B4, the normalised SPOT signal, Boehringer light units (BLU); mean over the file's lines of this peptide turned out to be 87.3.
The figure for B5 is 2410; for B6 it is 2120; for B7 it is 103.
Take B8: the normalised SPOT signal, Boehringer light units (BLU); mean over the file's lines of this peptide was 92.1.
On to B9, for which the normalised SPOT signal, Boehringer light units (BLU); mean over the file's lines of this peptide was 0.
In the case of B10, the normalised SPOT signal, Boehringer light units (BLU); mean over the file's lines of this peptide came out at 35.4.
B11 yielded a normalised SPOT signal, Boehringer light units (BLU); mean over the file's lines of this peptide of 78.5.
In turn, B12 showed a normalised SPOT signal, Boehringer light units (BLU); mean over the file's lines of this peptide of 103.
As for B13, the normalised SPOT signal, Boehringer light units (BLU); mean over the file's lines of this peptide was determined as 88.6.
The figure for B14 is 146; for B15 it is 155; for B16 it is 351.
On to B17, for which the normalised SPOT signal, Boehringer light units (BLU); mean over the file's lines of this peptide came out at 72.3.
With B18, the normalised SPOT signal, Boehringer light units (BLU); mean over the file's lines of this peptide was found to be 53.3.
B19 had a normalised SPOT signal, Boehringer light units (BLU); mean over the file's lines of this peptide of 132.
As for B20, the normalised SPOT signal, Boehringer light units (BLU); mean over the file's lines of this peptide amounted to 328.
B21: the normalised SPOT signal, Boehringer light units (BLU); mean over the file's lines of this peptide amounted to 143.
Take B22: the normalised SPOT signal, Boehringer light units (BLU); mean over the file's lines of this peptide came to 9430.
B23: the normalised SPOT signal, Boehringer light units (BLU); mean over the file's lines of this peptide came out at 2110.
Take B24: the normalised SPOT signal, Boehringer light units (BLU); mean over the file's lines of this peptide amounted to 114.
For B25 the value was 99.8; for B26, 94.4.
Take B27: the normalised SPOT signal, Boehringer light units (BLU); mean over the file's lines of this peptide worked out at 332.
The molecule B28 yielded a normalised SPOT signal, Boehringer light units (BLU); mean over the file's lines of this peptide of 86.
As to B29, the normalised SPOT signal, Boehringer light units (BLU); mean over the file's lines of this peptide stood at 112.
Consider B30, for which the normalised SPOT signal, Boehringer light units (BLU); mean over the file's lines of this peptide is 80.3.
Molecule B31 had a normalised SPOT signal, Boehringer light units (BLU); mean over the file's lines of this peptide of 342.
Take B32: the normalised SPOT signal, Boehringer light units (BLU); mean over the file's lines of this peptide came to 5260.
Molecule B33 had a normalised SPOT signal, Boehringer light units (BLU); mean over the file's lines of this peptide of 364.
In the case of B34, the normalised SPOT signal, Boehringer light units (BLU); mean over the file's lines of this peptide was 173.
The figure for B35 is 78.3; for B36 it is 630; for B37 it is 464.
Molecule B38 displayed a normalised SPOT signal, Boehringer light units (BLU); mean over the file's lines of this peptide of 1990.
B39 gave a normalised SPOT signal, Boehringer light units (BLU); mean over the file's lines of this peptide of 138.
B40: the normalised SPOT signal, Boehringer light units (BLU); mean over the file's lines of this peptide was found to be 78.7.
The molecule B41 displayed a normalised SPOT signal, Boehringer light units (BLU); mean over the file's lines of this peptide of 40.2.
For B42 the value was 517.
In turn, B43 registered a normalised SPOT signal, Boehringer light units (BLU); mean over the file's lines of this peptide of 122.
Consider B44, for which the normalised SPOT signal, Boehringer light units (BLU); mean over the file's lines of this peptide came to 233.
Molecule B45 showed a normalised SPOT signal, Boehringer light units (BLU); mean over the file's lines of this peptide of 74.
Take B46: the normalised SPOT signal, Boehringer light units (BLU); mean over the file's lines of this peptide came out at 223.
B47 had a normalised SPOT signal, Boehringer light units (BLU); mean over the file's lines of this peptide of 99.2.
For the molecule B48, the normalised SPOT signal, Boehringer light units (BLU); mean over the file's lines of this peptide is 71.
The molecule B49 had a normalised SPOT signal, Boehringer light units (BLU); mean over the file's lines of this peptide of 91.9.
On to B50, for which the normalised SPOT signal, Boehringer light units (BLU); mean over the file's lines of this peptide turned out to be 63.8.
B51 registered a normalised SPOT signal, Boehringer light units (BLU); mean over the file's lines of this peptide of 102.
Take B52: the normalised SPOT signal, Boehringer light units (BLU); mean over the file's lines of this peptide was determined as 190.
For the molecule B53, the normalised SPOT signal, Boehringer light units (BLU); mean over the file's lines of this peptide stood at 8310.
For B54 the value was 199.
